Source: patent US20090276160A1 (published 2009)

Experiments:
Experiment in all cases: cell-based or functional assay
[1] = biological target: Tissue factor/factor VIIa complex: human tissue factor (residues 1-219) with human recombinant FVIIa (human, UniProt P13726 33-251; P08709 61-466)
[2] = biological target: tPA (Activase, Genentech) (human, UniProt P00750 36-562)
[3] = biological target: Plasmin (Haematologic Technologies) (human, UniProt P00747 97-810, limits assumed)
[4] = biological target: Factor XIa (Haematologic Technologies) (human, UniProt P03951 19-625)
Chymotrypsin (Sigma) = Chymotrypsin (Sigma) (human, UniProt P17538 19-263)
[5] = biological target: T1, Matriptase (residues 615-855) (human, UniProt Q9Y5Y6 615-855)
T1 sequence (looked up): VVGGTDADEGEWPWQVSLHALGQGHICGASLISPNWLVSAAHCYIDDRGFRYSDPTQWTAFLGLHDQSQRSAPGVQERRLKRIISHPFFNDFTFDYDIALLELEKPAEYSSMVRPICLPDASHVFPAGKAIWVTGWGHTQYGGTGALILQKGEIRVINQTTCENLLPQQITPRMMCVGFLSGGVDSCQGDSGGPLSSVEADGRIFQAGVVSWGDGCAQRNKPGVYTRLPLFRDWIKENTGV

uPA (Chemicon) = uPA (Chemicon) (human, UniProt P00749 21-431, limits assumed)
[6] = biological target: Activated Protein C (Haematologic Technologies) (human, UniProt P04070 43-197; P04070 212-461)
[7] = biological target: Plasma kallikrein (American Diagnostica) (human, UniProt P03952 20-638)
[8] = biological target: T2, Hepatocyte growth factor activator (HGFA), activated 34 kDa short form, residues Val373 to Ser655 with a … (human, UniProt Q04756 408-655, single N-acetylglucosamine attached to Asn74 (chymotrypsinogen numbering))
T2 sequence 1: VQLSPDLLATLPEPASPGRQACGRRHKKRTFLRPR
T2 sequence 2: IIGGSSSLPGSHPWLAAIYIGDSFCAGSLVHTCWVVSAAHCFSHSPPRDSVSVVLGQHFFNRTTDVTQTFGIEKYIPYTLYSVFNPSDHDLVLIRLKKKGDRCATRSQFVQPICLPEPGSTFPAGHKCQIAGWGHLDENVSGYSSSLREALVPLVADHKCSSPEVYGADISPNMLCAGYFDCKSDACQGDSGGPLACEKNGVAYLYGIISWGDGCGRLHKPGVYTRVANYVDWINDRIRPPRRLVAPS

Hepsin (residues 45-417) = Hepsin (residues 45-417) (human, UniProt P05981 45-417)
[9] = biological target: Bovine trypsin (Worthington) (bovine, UniProt P00760 24-246)
[10] = biological target: Factor Xa (Haematologic Technologies) (human, UniProt P00742 41-179; P00742 235-488, limits assumed)
[11] = biological target: Thrombin (Haematologic Technologies) (human, UniProt P00734 328-622)
[12] = biological target: T3, Complement factor C1s (Calbiochem) (human, UniProt P09871 16-688)
T3 sequence (looked up): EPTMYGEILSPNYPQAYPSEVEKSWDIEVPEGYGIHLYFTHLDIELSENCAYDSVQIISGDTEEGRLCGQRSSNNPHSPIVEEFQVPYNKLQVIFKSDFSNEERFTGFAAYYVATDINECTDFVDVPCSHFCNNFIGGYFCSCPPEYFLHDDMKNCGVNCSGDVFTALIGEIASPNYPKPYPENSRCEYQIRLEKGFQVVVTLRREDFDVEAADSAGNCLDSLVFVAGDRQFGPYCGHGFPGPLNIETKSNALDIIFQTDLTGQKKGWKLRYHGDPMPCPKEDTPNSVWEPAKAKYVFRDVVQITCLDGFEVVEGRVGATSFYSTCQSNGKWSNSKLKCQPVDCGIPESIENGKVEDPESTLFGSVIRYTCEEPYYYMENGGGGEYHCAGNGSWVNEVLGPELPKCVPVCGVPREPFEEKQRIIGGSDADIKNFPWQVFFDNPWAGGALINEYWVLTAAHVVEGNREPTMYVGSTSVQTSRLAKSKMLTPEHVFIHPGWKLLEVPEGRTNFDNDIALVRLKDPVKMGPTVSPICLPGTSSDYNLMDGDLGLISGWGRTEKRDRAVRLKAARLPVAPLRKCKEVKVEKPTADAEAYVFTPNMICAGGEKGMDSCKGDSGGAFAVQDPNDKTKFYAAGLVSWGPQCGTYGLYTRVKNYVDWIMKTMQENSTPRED

[13] = biological target: T4, Factor XIIa (American Diagnostica) (human, UniProt P00748 20-615, limits assumed)
T4 sequence (looked up): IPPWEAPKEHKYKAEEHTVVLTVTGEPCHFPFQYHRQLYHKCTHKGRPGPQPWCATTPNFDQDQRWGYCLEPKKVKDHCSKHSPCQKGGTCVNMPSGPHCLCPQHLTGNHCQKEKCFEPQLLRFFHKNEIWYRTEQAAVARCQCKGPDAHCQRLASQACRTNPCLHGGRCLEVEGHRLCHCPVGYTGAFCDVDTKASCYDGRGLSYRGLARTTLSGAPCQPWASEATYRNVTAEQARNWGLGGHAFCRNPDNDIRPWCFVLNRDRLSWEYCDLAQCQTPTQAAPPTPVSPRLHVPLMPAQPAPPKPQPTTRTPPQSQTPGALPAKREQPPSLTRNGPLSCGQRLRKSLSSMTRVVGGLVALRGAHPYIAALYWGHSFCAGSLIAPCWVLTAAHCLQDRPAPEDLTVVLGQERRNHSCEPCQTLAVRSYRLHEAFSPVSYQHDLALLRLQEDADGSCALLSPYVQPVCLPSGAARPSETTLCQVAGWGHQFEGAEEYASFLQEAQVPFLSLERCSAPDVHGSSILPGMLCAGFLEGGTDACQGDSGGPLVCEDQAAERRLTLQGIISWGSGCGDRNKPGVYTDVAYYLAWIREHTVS

Bovine trypsin (Worthington), sequence (P00760 24-246): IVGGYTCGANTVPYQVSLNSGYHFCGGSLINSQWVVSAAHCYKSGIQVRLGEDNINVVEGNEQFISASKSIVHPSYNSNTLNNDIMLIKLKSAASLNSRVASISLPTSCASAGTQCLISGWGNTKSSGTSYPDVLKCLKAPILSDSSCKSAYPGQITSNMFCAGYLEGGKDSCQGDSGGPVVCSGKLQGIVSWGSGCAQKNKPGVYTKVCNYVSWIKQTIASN
Tissue factor/factor VIIa complex: human tissue factor (residues 1-219) with human recombinant FVIIa, sequence (P13726 33-251 limits assumed, chain 1 of 2): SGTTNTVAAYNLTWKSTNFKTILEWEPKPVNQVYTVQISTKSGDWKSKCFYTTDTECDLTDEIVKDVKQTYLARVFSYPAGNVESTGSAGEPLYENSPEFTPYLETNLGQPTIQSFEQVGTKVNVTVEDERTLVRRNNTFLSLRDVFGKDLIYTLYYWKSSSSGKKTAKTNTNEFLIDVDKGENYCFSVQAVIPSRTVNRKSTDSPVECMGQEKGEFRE
Tissue factor/factor VIIa complex: human tissue factor (residues 1-219) with human recombinant FVIIa, sequence (P08709 61-466 limits assumed, chain 2 of 2): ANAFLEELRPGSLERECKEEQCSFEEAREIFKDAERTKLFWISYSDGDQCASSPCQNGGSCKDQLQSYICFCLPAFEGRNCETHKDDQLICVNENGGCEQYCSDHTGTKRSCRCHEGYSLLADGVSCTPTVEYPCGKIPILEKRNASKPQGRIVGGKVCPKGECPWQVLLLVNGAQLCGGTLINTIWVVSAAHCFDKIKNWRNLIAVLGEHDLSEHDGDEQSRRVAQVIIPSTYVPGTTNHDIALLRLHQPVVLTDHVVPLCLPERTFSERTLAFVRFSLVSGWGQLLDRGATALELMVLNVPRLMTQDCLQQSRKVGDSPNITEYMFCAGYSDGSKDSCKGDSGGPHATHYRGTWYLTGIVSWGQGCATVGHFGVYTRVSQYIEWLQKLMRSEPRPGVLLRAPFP
Plasma kallikrein (American Diagnostica), sequence (P03952 20-638 limits assumed): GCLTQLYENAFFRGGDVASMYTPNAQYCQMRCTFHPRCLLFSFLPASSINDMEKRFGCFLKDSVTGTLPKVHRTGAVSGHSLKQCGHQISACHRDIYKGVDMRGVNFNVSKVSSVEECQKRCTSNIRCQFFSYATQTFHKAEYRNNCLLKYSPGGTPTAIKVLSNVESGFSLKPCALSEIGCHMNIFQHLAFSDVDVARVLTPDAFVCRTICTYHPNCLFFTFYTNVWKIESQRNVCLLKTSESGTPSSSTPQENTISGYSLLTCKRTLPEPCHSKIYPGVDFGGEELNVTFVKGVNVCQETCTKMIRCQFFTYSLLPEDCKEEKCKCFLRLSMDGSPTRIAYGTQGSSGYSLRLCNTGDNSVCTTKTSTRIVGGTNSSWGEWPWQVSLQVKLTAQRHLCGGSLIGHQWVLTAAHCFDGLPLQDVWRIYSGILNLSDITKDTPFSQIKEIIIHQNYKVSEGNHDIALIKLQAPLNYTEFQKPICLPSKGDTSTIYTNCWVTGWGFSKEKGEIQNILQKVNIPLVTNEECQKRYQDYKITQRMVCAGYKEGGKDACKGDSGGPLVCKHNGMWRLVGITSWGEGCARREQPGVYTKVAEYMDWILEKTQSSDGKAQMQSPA
Factor Xa (Haematologic Technologies), sequence (P00742 41-179 limits assumed, chain 1 of 2): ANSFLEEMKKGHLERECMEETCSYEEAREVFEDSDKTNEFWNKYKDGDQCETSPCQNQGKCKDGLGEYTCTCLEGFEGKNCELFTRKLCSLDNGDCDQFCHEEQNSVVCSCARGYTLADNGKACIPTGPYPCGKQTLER
Factor Xa (Haematologic Technologies), sequence (P00742 235-488 limits assumed, chain 2 of 2): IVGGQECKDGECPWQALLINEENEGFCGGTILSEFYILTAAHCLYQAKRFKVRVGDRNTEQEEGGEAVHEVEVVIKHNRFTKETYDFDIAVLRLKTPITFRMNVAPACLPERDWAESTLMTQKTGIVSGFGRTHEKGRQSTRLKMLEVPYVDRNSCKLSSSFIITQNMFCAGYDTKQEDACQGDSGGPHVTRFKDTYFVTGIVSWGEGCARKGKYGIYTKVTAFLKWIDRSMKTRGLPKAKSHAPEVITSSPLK
Chymotrypsin (Sigma), sequence (P17538 19-263): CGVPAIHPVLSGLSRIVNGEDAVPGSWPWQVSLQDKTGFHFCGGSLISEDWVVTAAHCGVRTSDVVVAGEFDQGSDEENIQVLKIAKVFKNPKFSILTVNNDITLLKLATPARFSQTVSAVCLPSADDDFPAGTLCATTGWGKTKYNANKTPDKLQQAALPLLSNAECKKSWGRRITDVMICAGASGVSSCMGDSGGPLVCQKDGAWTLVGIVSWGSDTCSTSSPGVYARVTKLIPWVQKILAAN
Activated Protein C (Haematologic Technologies), sequence (P04070 43-197, form in doubt, chain 1 of 2): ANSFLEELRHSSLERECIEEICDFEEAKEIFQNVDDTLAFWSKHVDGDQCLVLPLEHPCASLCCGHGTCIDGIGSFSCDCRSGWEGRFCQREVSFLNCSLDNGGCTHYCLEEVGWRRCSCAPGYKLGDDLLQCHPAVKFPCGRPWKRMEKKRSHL
Activated Protein C (Haematologic Technologies), sequence (P04070 212-461, form in doubt, chain 2 of 2): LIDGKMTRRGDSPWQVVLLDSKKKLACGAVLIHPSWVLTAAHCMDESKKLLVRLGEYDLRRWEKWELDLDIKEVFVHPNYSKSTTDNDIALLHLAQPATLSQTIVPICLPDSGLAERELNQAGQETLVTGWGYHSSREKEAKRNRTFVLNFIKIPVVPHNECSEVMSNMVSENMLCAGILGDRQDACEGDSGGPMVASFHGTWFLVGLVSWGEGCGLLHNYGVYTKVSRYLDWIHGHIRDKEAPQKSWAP
Plasmin (Haematologic Technologies), sequence (P00747 97-810 limits assumed): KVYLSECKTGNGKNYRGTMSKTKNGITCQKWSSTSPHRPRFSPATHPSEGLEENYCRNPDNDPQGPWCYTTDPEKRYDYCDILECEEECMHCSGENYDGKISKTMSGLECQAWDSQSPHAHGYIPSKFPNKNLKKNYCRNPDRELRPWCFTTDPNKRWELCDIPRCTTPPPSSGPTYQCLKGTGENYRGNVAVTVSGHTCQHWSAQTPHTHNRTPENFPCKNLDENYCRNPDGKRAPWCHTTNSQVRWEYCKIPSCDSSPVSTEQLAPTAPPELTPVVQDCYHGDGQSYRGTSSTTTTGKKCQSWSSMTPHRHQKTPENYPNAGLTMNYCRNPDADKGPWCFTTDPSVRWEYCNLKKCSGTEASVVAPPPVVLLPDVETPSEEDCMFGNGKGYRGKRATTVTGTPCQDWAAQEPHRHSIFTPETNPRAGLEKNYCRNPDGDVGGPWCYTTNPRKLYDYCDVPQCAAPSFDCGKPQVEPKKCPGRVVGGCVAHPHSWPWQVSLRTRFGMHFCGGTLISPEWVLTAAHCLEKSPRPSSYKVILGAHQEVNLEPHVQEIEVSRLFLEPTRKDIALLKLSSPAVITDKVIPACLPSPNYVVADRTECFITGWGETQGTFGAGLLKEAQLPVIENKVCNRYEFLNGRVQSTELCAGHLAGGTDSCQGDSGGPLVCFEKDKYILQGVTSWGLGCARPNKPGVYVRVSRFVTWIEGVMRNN
tPA (Activase, Genentech), sequence (P00750 36-562 limits assumed): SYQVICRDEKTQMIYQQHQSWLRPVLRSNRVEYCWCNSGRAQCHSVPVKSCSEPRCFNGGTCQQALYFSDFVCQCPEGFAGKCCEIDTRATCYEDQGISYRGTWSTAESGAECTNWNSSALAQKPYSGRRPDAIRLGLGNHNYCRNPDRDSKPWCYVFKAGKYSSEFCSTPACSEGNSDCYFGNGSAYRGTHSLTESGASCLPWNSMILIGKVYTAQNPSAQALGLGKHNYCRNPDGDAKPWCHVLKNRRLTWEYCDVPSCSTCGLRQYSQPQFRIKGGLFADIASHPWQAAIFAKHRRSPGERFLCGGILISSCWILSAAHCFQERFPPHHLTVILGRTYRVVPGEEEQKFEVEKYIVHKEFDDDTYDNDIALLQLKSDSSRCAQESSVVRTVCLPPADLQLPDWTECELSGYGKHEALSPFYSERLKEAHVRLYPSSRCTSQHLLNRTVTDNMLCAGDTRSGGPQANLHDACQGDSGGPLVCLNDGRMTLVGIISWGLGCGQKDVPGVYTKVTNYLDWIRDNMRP
Hepsin (residues 45-417), sequence (P05981 45-417 limits assumed): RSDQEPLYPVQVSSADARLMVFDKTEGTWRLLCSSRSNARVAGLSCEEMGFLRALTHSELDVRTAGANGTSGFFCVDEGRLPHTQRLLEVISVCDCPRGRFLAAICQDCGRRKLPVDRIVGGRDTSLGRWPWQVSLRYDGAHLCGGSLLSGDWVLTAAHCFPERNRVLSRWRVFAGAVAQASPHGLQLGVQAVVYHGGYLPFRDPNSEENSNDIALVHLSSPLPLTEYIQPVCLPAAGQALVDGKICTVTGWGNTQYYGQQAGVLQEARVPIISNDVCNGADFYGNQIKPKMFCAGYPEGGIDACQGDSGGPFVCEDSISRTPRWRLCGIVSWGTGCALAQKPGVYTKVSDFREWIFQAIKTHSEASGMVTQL

B1: First Kunitz domain (KD1) of human HAI-1B, amino acids 246-303 of the precursor, with N-terminal polyhistidine leader (other)
chain: MKHQHQHQHQHQHQMHQTEDYCLASNKVGRCRGSFPRWYYDPTEQICKSFVYGGCLGNKNNYLREEECILACRGV
B1 was tested, and the “IC50 (nM), inhibition of enzyme activity on chromogenic substrate” value (from here on “IC50 (nM), inhibition of enzyme activity”) [1] was over 1000 nM, the “IC50 (nM), inhibition of enzyme activity” value [2] was over 1000 nM and the “IC50 (nM), inhibition of enzyme activity” value [3] was 115 nM. The “IC50 (nM), inhibition of enzyme activity” value [4] was over 1000 nM, the “IC50 (nM), inhibition of enzyme activity” value (Chymotrypsin (Sigma)) was over 1000 nM and the “IC50 (nM), inhibition of enzyme activity” value [5] was 1.7 nM. The “IC50 (nM), inhibition of enzyme activity” value (uPA (Chemicon)) was over 1000 nM, the “IC50 (nM), inhibition of enzyme activity” value [6] was over 1000 nM and the “IC50 (nM), inhibition of enzyme activity” value [7] was 21 nM. For the same binder, the “IC50 (nM), inhibition of enzyme activity” value [8] was 4 nM, the “IC50 (nM), inhibition of enzyme activity” value (Hepsin (residues 45-417)) was 6.7 nM and the “IC50 (nM), inhibition of enzyme activity” value [9] was 0.7 nM. For the same binder, the “IC50 (nM), inhibition of enzyme activity” value [10] was over 1000 nM, the “IC50 (nM), inhibition of enzyme activity” value [11] was over 1000 nM and the “IC50 (nM), inhibition of enzyme activity” value [12] was over 1000 nM. For the same binder, the “IC50 (nM), inhibition of enzyme activity” value [13] was over 1000 nM.
